Data taken from patent US5663141A, “Hirudin/polyalkylene glycol conjugates and hirudin muteins” (BASF Aktiengesellschaft, priority 1989, dated 1997).

Assays:
[1] = target: thrombin (Homo sapiens, UniProt P00734); experiment: thrombin inhibition assay with the chromogenic substrate S 2238 (specific activity); format: biochemical
Source text: The specific activity of the PEG1 -hirudin conjugate purified from the coupling mixture was 8,000 U/mg of protein (determined by the thrombin inhibition assay with the chromogenic substrate S 2238 (Kabi), (FEBS-Lett. (1983), 164, 307), protein determined by BCA assay with serum albumin as standard (Pierce)), and the molecular weight of the conjugate was 15,000 Da (Superose®-12 chromatography, Pharmacia).

[2] = in vivo; cited from earlier work
[3] = Pharmacokinetics of PEG2-hirudin conjugates in dogs (plasma anti-factor IIa activity); format: in vivo; details: beagle dogs, 4,000 U/kg intravenous or subcutaneous, compared with underivatized hirudin, FIGS. 3 and 4
Method: 2 groups of dogs (beagle dogs, 4 animals in each group) each received intravenous or subcutaneous administration of 4,000 U/kg PEG2 -hirudin (0.2 ml vol). 2 ml samples of blood in 0.1M Na citrate were taken 0.25, 0.5, 1, 2, 3, 4, 6, 8, 24, 32, 48, 56, 72 and 80 h after the injection. Subsequently platelet-poor plasma was prepared by centrifugation at 4,000 g for 10 minutes, and the plasma PEG-hirudin concentration was determined by the thrombin inhibition in the chromogenic substrate assay with S 2238 (Kabi). For comparison, the same dogs were treated in another experiment with hirudin. The time course of the plasma hirudin concentration was subsequently determined as described above.
FIGS. 3 and 4 depict the time course of the anti-factor IIa activities after intravenous and subcutaneous administration of PEG2 -hirudin and underivatized hirudin.

[4] = target: thrombin
[5] = purified conjugate, protein determined by BCA assay with serum albumin as standard
[6] = underivatized protein used as starting material

## PEG1-hirudin: desulfatohirudin carrying one methoxy-polyethylene glycol(8000) residue, Example 9
[1]; [5]
  specific activity: 8,000 U/mg of protein

## hirudin: naturally occurring anticoagulant protein of 65 amino acids from the leech Hirudo medicinalis, thrombin inhibitor
[2]
  half-life in the blood: about 50 min

## PEG2-hirudin: desulfatohirudin carrying two methoxypolyethylene glycol (8,000 Da) residues, Example 10
[1]; [5]
  specific activity: 6,200 U/mg of protein
[3]
  bioavailability: better
  duration of the biological action (anti-factor IIa activity time course): distinctly prolonged

## desulfatohirudin (from UniProt P01050)
[4]
  specific activity: 8000 ATU/mg

## desulfatohirudin: hirudin prepared by genetic engineering, sulfate residue on Tyr 63 absent; sequences 1A + 2A + 3A [reference compound]
[1]; [6]
  specific activity: 8,000 ATU/mg

B1: HL 14B: hirudin mutein, Asp33→Lys33, Lys36→Arg36, Lys47→Arg47 (protein)
chain: VVYTDCTESGQNLCLCEGSNVCGQGNKCILGSKGERNQCVTGEGTPRPQSHNDGDFEEIPEEYLQ
[1]; [6]
  specific activity: 8,900 ATU/mg

B2: PEG2-HL 14B: hirudin mutein HL 14B carrying two methoxy-polyethylene glycol (8,000 Da) residues, Example 11 (conjugate)
chain: B1 chain
modifications: ends and bridges not checked; also: two methoxy-PEG (8,000 Da) on lysine side-chain amino groups, positions not given here
[1]; [5]
  specific activity: 8,300 U/mg of protein
